Measurements from patent US20240352438A1, “MEANS AND METHODS FOR DETOXIFYING OCHRATOXIN A” (DSM Austria GmbH, priority 2021, published 2024).
Positions count from the first letter of the chain named.

B1: 316 (protein)
chain: MTTRTRILTAFLSLLAANACAADAAPAAPETVVLRCARMFDGASGKLVDNPQLTIVGNKIVRIAQGDKAEVPAGAEVVDLGDATCLPGFIDAHVHLVVQDSDQYRPRAYKDWQRFPAEHALRGAYWARIELEAGFTSVRDVAERDWVALGLRNAIDAGKVPGPRMLVSNFPVGSTSGHCDMDSVPPNRLPLVGPLQGTCNGPEECRAAVRYQIKYGANVIKFCPSSGAITFSNPADAPQLSPDEMNAVIGESEAWGRYVAAHAQGDKAAKMAVAAGVRSIEHGTFIQDDTLRAMKAKNVCLVPTISGVCEAEAQIGCYPPVMAEKGRAGMASMRQTFREAVQIGVPIALGTDSALPANGSQAREFRYMVENGLTPAQALLAGTANAARCLGTFDRVGTLEAGKLADVVAVPGNPIADITVTERPLFVMKDGVVVRRDAVR
modifications: exemplary polypeptide
B2: 295 (protein)
chain: MTTRTRILTAFLSLLAANACAADAAPAAPHTVVLRAARMFDGASGKLVDHPQLTIVGNKIVRIAQGDKAEVPAGAEVVDLGDATLLPGFIDAHVHLSGQSSDNWYGDFFDNMMRFPAEQALYGAYYARITLEAGFTSVRDVGSTDWVALGLRNAIDAGKVPGPRMLVSNYAVGSTGGHADQDPIPPHKLPLAGPLQGVCNGPEECRAAVRYQIKYGANVIKFMPSGGVLSLSDPVDAPELSQDEMNAVIGESHAWGRKVAAHAHGDKAAKMAVAAGVDSIEHGSFIEDDTLRAMKAKNVYLVPTISAVAHVEEKIGTFPPVIAEKGRAAAAHLRQTFRHAVQIGVPIALGTDAGVPAHGSNAREFRYMVENGLTPAQALLAGTANAARLLGTFDRVGTLEAGKLADVVAVPGNPIADITVTERPLFVMKDGVVVRRDAVR
modifications: exemplary polypeptide
B3: 315 (protein)
chain: B2 chain with L333M, P356G
modifications: exemplary polypeptide
B4: 85 (protein)
chain: B2 chain with H264L, V308I, P356G
modifications: exemplary polypeptide
B5: 83 (protein)
chain: B2 chain with L229I, V308I, P356G
modifications: exemplary polypeptide
B6: 308 (protein)
chain: B2 chain with V308A, A330V, P356G
modifications: exemplary polypeptide
B7: 296 (protein)
chain: B2 chain with P356Y
modifications: exemplary polypeptide
B8: 311 (protein)
chain: B2 chain with A330L, P356G
modifications: exemplary polypeptide
B9: 313 (protein)
chain: B2 chain with A330V, P356G
modifications: exemplary polypeptide
B10: 309 (protein)
chain: B2 chain with V308A, L333I, P356G
modifications: exemplary polypeptide
B11: 304 (protein)
chain: B2 chain with I184V, A192L, V308I, P356G
modifications: exemplary polypeptide
B12: 307 (protein)
chain: B2 chain with V308A, A330M, P356G
modifications: exemplary polypeptide
B13: 305 (protein)
chain: B2 chain with I184V, A192M, V308I, P356G
modifications: exemplary polypeptide
B14: 84 (protein)
chain: B2 chain with H264N, V308I, P356G
modifications: exemplary polypeptide
B15: 299 (protein)
chain: B2 chain with V308I, H310D, V355L, P356G
modifications: exemplary polypeptide
B16: 303 (protein)
chain: B2 chain with V308I, V355L
modifications: exemplary polypeptide
B17: 306 (protein)
chain: B2 chain with V308A, A330L, P356G
modifications: exemplary polypeptide
B18: 297 (protein)
chain: B2 chain with V308I, G354A, P356V
modifications: exemplary polypeptide
B19: 300 (protein)
chain: B2 chain with V308I, H310E, V355L, P356G
modifications: exemplary polypeptide
B20: 312 (protein)
chain: B2 chain with A330M, P356G
modifications: exemplary polypeptide
B21: 301 (protein)
chain: B2 chain with V308I, V311A, V355L, P356G
modifications: exemplary polypeptide
B22: 310 (protein)
chain: B2 chain with V308A, L333M, P356G
modifications: exemplary polypeptide

Assay: Enzymatic activity comparison: activity remaining after 65° C. for 10 min at pH 6.0, relative to SEQ ID NO: 1
Assay type: physicochemical
Conditions: not given
Description: To compare the temperature behavior and thermostability of selected enzymes to one another, enzyme was incubated at 65° C. for 10 min at pH 6.0. The enzymatic activity remaining after incubation was compared to the remaining activity of the enzyme of SEQ ID NO: 1 after incubation, the latter being set to 100%, see Table 16.

Compared with B1, B2 is higher in “Enzymatic activity remaining after incubation, compared to SEQ ID NO: 1 (set to 100%)” value: 25% for the first, 41% for the second.

Compared with B3, B4 is higher in “Enzymatic activity remaining after incubation, compared to SEQ ID NO: 1 (set to 100%)” value: 29% for the first, 95% for the second.

Going from B5 to B6, the “Enzymatic activity remaining after incubation, compared to SEQ ID NO: 1 (set to 100%)” value rises from 19% to 39%.

Going from B7 to B8, the “Enzymatic activity remaining after incubation, compared to SEQ ID NO: 1 (set to 100%)” value falls from 43% to 30%.

Compared with B9, B10 is higher in “Enzymatic activity remaining after incubation, compared to SEQ ID NO: 1 (set to 100%)” value: 20% for the first, 28% for the second.

Going from B11 to B12, the “Enzymatic activity remaining after incubation, compared to SEQ ID NO: 1 (set to 100%)” value falls from 63% to 35%.

Compared with B13, B14 is higher in “Enzymatic activity remaining after incubation, compared to SEQ ID NO: 1 (set to 100%)” value: 35% for the first, 58% for the second.

Compared with B15, B16 is higher in “Enzymatic activity remaining after incubation, compared to SEQ ID NO: 1 (set to 100%)” value: 27% for the first, 56% for the second.

Compared with B17, B18 is lower in “Enzymatic activity remaining after incubation, compared to SEQ ID NO: 1 (set to 100%)” value: 36% for the first, 32% for the second.

Compared with B19, B20 is lower in “Enzymatic activity remaining after incubation, compared to SEQ ID NO: 1 (set to 100%)” value: 31% for the first, 17% for the second.

First: B21
Second: B22
The “Enzymatic activity remaining after incubation, compared to SEQ ID NO: 1 (set to 100%)” value of the first is lower: 35% for the first, 39% for the second.

Assay: OTA detoxification activity assay (specific activity, fluorescence reduction ex/em 390/450 nm)
Assay type: biochemical
Conditions: pH 6.0; SEQ ID NO: 1 = 100%
Method in brief: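 Recombinant enzyme preparation with 200 ng/mL OTA in 100 mM sodium phosphate, at pH 6.0 and pH 7.5, 37° C. Degradation followed as the fall in fluorescence at ex/em 390/450 nm. Specific activity taken from the initial linear slope; one unit degrades 1 μmol OTA per min at a starting OTA of […].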

Compared with B1, B2 is higher in “Specific OTA detoxification activities in % compared to the enzyme of SEQ ID NO: 1, pH 6.0” value: 62% for the first, 95% for the second.

Compared with B3, B4 is lower in “Specific OTA detoxification activities in % compared to the enzyme of SEQ ID NO: 1, pH 6.0” value: 38% for the first, 5% for the second.

Compared with B5, B6 is higher in “Specific OTA detoxification activities in % compared to the enzyme of SEQ ID NO: 1, pH 6.0” value: 63% for the first, 171% for the second.

Compared with B7, B8 is higher in “Specific OTA detoxification activities in % compared to the enzyme of SEQ ID NO: 1, pH 6.0” value: 42% for the first, 89% for the second.

Compared with B9, B10 is higher in “Specific OTA detoxification activities in % compared to the enzyme of SEQ ID NO: 1, pH 6.0” value: 84% for the first, 106% for the second.

Compared with B11, B12 is higher in “Specific OTA detoxification activities in % compared to the enzyme of SEQ ID NO: 1, pH 6.0” value: 25% for the first, 138% for the second.

Compared with B13, B14 is lower in “Specific OTA detoxification activities in % compared to the enzyme of SEQ ID NO: 1, pH 6.0” value: 36% for the first, 3% for the second.

First: B15
Second: B16
The “Specific OTA detoxification activities in % compared to the enzyme of SEQ ID NO: 1, pH 6.0” value of the first is lower: 156% for the first, 167% for the second.

Compared with B17, B18 is higher in “Specific OTA detoxification activities in % compared to the enzyme of SEQ ID NO: 1, pH 6.0” value: 114% for the first, 182% for the second.

Compared with B19, B20 is lower in “Specific OTA detoxification activities in % compared to the enzyme of SEQ ID NO: 1, pH 6.0” value: 152% for the first, 81% for the second.

First: B21
Second: B22
The “Specific OTA detoxification activities in % compared to the enzyme of SEQ ID NO: 1, pH 6.0” value of the first is lower: 55% for the first, 78% for the second.

Same assay, conditions: pH 7.5; SEQ ID NO: 1 = 100%

Compared with B1, B2 is higher in “Specific OTA detoxification activities in % compared to the enzyme of SEQ ID NO: 1, pH 7.5” value: 61% for the first, 110% for the second.

Going from B3 to B4, the “Specific OTA detoxification activities in % compared to the enzyme of SEQ ID NO: 1, pH 7.5” value falls from 56% to 3%.

Compared with B5, B6 is higher in “Specific OTA detoxification activities in % compared to the enzyme of SEQ ID NO: 1, pH 7.5” value: 90% for the first, 117% for the second.

Compared with B7, B8 is higher in “Specific OTA detoxification activities in % compared to the enzyme of SEQ ID NO: 1, pH 7.5” value: 38% for the first, 48% for the second.

First: B9
Second: B10
The “Specific OTA detoxification activities in % compared to the enzyme of SEQ ID NO: 1, pH 7.5” value of the first is higher: 54% for the first, 48% for the second.

First: B11
Second: B12
The “Specific OTA detoxification activities in % compared to the enzyme of SEQ ID NO: 1, pH 7.5” value of the first is lower: 24% for the first, 84% for the second.

Going from B13 to B14, the “Specific OTA detoxification activities in % compared to the enzyme of SEQ ID NO: 1, pH 7.5” value falls from 46% to 5%.

Going from B15 to B16, the “Specific OTA detoxification activities in % compared to the enzyme of SEQ ID NO: 1, pH 7.5” value rises from 95% to 110%.

Going from B17 to B18, the “Specific OTA detoxification activities in % compared to the enzyme of SEQ ID NO: 1, pH 7.5” value rises from 74% to 106%.

First: B19
Second: B20
The “Specific OTA detoxification activities in % compared to the enzyme of SEQ ID NO: 1, pH 7.5” value of the first is higher: 103% for the first, 64% for the second.

Compared with B21, B22 is higher in “Specific OTA detoxification activities in % compared to the enzyme of SEQ ID NO: 1, pH 7.5” value: 43% for the first, 91% for the second.
